Tests used:
[1] = target: the molecule itself; experiment: native MS
[2] = target: the molecule itself; experiment: SEC-MALS + other: SAXS

B1: ECSITCTD (C‐terminal fragment of ECSIT, residues 248–431), purified (domain or fragment)
chain: PLPKDSTGAADPPQPHIVGIQSPDQQAALARHNPARPVFVEGPFSLWLRNKCVYYHILRADLLPPEEREVEETPEEWNLYYPMQLDLEYVRSGWDNYEFDINEVEEGPVFAMCMAGAHDQATMAKWIQGLQETNPTLAQIPVVFRLAGSTRELQTSSAGLEEPPLPEDHQEEDDNLQRQQQGQS
stoichiometry N [1]: ≥ 4
stoichiometry N [2]: 2

B2: ACAD9 (residues 38–621), recombinant, purified (enzyme)
chain: AFAKELFLGKIKKKEVFPFPEVSQDELNEINQFLGPVEKFFTEEVDSRKIDQEGKIPDETLEKLKSLGLFGLQVPEEYGGLGFSNTMYSRLGEIISMDGSITVTLAAHQAIGLKGIILAGTEEQKAKYLPKLASGEHIAAFCLTEPASGSDAASIRSRATLSEDKKHYILNGSKVWITNGGLANIFTVFAKTEVVDSDGSVKDKITAFIVERDFGGVTNGKPEDKLGIRGSNTCEVHFENTKIPVENILGEVGDGFKVAMNILNSGRFSMGSVVAGLLKRLIEMTAEYACTRKQFNKRLSEFGLIQEKFALMAQKAYVMESMTYLTAGMLDQPGFPDCSIEAAMVKVFSSEAAWQCVSEALQILGGLGYTRDYPYERILRDTRILLIFEGTNEILRMYIALTGLQHAGRILTTRIHELKQAKVSTVMDTVGRRLRDSLGRTVDLGLTGNHGVVHPSLADSANKFEENTYCFGRTVETLLLRFGKTIMEEQLVLKRVANILINLYGMTAVLSRASRSIRIGLRNHDHEVLLANTFCVEAYLQNLFSLSQLDKYAPENLDEQIKKVSQQILEKRAYICAHPLDRTC
stoichiometry N [1]: 2
